The record followed here is US20240360208A1 (Hoffmann-La Roche, published 2024).

Assay [1] addresses T1, human CCL2 (MCP1) - wild type (wt) (human, UniProt P13500 24-99). The assay can be described thus: cell-based or functional assay.
The target in assay [2] is T2, human FcγRIIa on CHO-K1 cells (clone 138) (human, UniProt P12318 34-317).
T2 sequence (looked up): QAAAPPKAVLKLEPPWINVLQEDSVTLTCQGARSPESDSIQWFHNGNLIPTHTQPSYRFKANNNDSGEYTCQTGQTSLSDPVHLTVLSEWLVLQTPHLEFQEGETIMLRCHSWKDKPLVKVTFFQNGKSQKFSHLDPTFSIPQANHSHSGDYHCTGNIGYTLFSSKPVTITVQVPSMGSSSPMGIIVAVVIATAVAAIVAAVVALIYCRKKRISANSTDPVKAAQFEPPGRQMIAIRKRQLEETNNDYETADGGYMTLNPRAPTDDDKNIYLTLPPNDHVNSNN
The assay can be described thus: cell-based or functional assay.

Assay [3] concerns the target T3, human FcγRIIb receptor on CHO-K1 cells (clone 223) (human, UniProt P31994 43-310).
T3 sequence (looked up): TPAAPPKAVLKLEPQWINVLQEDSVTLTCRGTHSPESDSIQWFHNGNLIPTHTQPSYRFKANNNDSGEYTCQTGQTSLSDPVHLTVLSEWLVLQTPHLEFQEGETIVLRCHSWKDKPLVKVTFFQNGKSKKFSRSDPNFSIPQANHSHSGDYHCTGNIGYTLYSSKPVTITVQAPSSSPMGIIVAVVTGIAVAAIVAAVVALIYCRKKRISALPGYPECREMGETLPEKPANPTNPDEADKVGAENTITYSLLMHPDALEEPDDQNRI
The assay can be described thus: cell-based or functional assay.

The target in assay [4] is T1, human CCL2 (MCP1) - wild type (wt). The assay can be described thus: SPR T200, 25 C, anti-human Fc capture, 1:1 model, pH 7.4. On the procedure:
(§1) An antibody capture system was established. 13000 MAb<h-Fc-pan>M-R10Z8E9-IgG (Roche) were immobilized at 25° C. at 18 μg/ml in 10 mM sodium acetate buffer pH 5.0, by EDC/NHS coupling as described by the manufacturer. The capture system was regenerated by an injection at 20 μl/min with HBS buffer (100 mM HEPES pH 7.4, 1.5 M NaCl, 0.05% (w/v) Tween 20), followed by a 1 min 15 see injection with 10 mM NaOH and two 10 mM glycine buffer pH 2.5 injections for 1 min. Antibodies were captured were injected for 30 see at 10 μl/min at 80 nM concentration diluted in the respective system buffer. […] The analyte contact time was 3 min and the dissociation time was 10 min. Analyte kinetics were performed at 50 μl/min.
(§2) The Biaevaluation software V.3.0 was used according to the instructions of the manufacturer GEHC. A 1:1 binding model with RMAX local was applied to determine kinetic rates.

For assay [5] the target is unchanged. As to the kind of experiment: SPR T200, 25 C, anti-human Fc capture, 1:1 model, pH 5.5. How it is done:
as §1, §2

Assay [6] has the same target. The assay can be described thus: SPR T200, 25 C, anti-human Fc capture, 1:1 model, pH 8.3. On the procedure: as §1, §2
Assay [7] has the same target. As to the kind of experiment: SPR T200, 25 C, anti-human Fc capture, 1:1 model, pH 7.9. On the procedure: as §1, §2
Assay [8] has the same target. As to the kind of experiment: SPR T200, 25 C, anti-human Fc capture, 1:1 model, pH 7.1. On the procedure: as §1, §2
The target is the same in assay [9]. As to the kind of experiment: SPR, C1 chip, anti-human Fc capture, 25 C, pH 7.4, Langmuir 1:1. How it is done:
The sample and system buffer was PBS-T (10 mM phosphate buffered saline including 0.05% Tween20) pH 7.4. The flow cell was set to 25° C.—and the sample block set to 12° C.—and primed with running buffer twice. The bispecific antibody was captured by injecting a 2 μg/ml solution for 60 see at a flow rate of 10 μl/min. Association was measured by injection of human CCL2 (wt) in various concentrations in solution for 150 see at a flow rate of 30 μl/min starting with 30 nM in 1:10 dilutions. The dissociation phase was monitored for up to 1200 sec and triggered by switching from the sample solution to running buffer. […] Bulk refractive index differences were corrected by subtracting the response obtained from a goat anti human IgG Fc surface. Blank injections are also subtracted (=double referencing). For calculation of kinetic parameters, the Langmuir 1:1 model was used.
For orientation: Surface plasmon resonance follows binding to a sensor surface in real time, without labels.

Assay [10] has the same target. The assay can be described thus: SPR T200, 25 C, anti-human Fc capture, 1:1 model, pH 6.3.
For assay [11] the target is unchanged. As to the kind of experiment: cell-based or functional assay. The source holds these as a separate data set.
For assay [12] the target is unchanged. The assay can be described thus: SPR T200, 25 C, anti-human Fc capture, 1:1 model, pH 6.7.
Assay [13] concerns the target T4, human CCL2 (MCP1) - P8A variant (human, UniProt P13500 24-99).
T4 construct: In-house point mutant that cannot dimerise; also called monomeric human CCL2; monomeric CCL2
As to the kind of experiment: SPR T200, 37 C, antibody captured, 1:1 model. How it is done:
(§3) Antibody clone supernatants were diluted 1:2 in system buffer and were captured for 1 min at 5 μl/min. […] Analyte kinetics were performed at 30 μl/min. As analyte in solution wt human CCL2 or monomeric CCL2 P8A variant CCL2 were used. Analytes were injected at 90 nM highest concentration. The analyte contact time was 3 min and the dissociation time was 10 min. The Biaevaluation software V.3.0 was used according to the instructions of the manufacturer GEHC. A 1:1 binding model with RMAX local was applied to apparently estimate kinetic rates.

The target of assay [14] is T1, human CCL2 (MCP1) - wild type (wt). As to the kind of experiment: SPR T200, 37 C, antibody captured, 1:1 model. On the procedure: as §3
Assay [15] has the same target. As to the kind of experiment: SPR T200, 25 C, anti-human Fc capture, 1:1 model, pH 5.9. On the procedure: as §1, §2
Assay [16] addresses T3, human FcγRIIb receptor on CHO-K1 cells …. The assay can be described thus: cell-based or functional assay. The source holds these as a separate data set.

B1: P1AF8142 (CKLO2-CB-SG1095) (bispecific antibody)
chain 1: not shown
chain 2: QVQLVQSGAEVKKPGSSVKVSCKASGLTISHTYMHWVRQAPGQGLEWMGRIDPDNHNTKFDPKFQGRVTITADTSTSTAYMELSSLRSEDTAVYYCARGVFGFFEHWGQGTTVTVSSASTKGPSVFPLAPSSKSTSGGTAALGCLVKDYFPEPVTVSWNSGALTSGVHTFPAVLQSSGLYSLSSVVTVPSSSLGTQTYICNVNHKPSNTKVDKKVEPKSCGGSGGGGSGGDKTHTCPPCPAPELWNGPSVFLFPPKPKDTLMISRTPEVTCVVVDVSDEDPEVKFNWYVDGVEVHNAKTKPREELYNSTYRVVSVLTVLHRDWLNGKEYKCKVSNTALPKPIEKTISKAKGQRREPQVYTLPPCRDELTKNQVSLWCLVKGFYPSDIAVEWESNGQPENNYKTTPPVLDSDGSFFLYSKLTVDKSRWQQGNVFSCSVMHEALHAHYTRKELSLSPGKGGSGGGGSGGDIQMTQSPSSLSASVGDRVTITCKAFEDIYNRRAWYQQKPGKAPKLLIHGATSLEHGVPSRFSGSGSGTDYTLTISSLQPEDFATYYCQQFWSAPYTFGGGTKVEIKRTVAAPSVFIFPPSDEQLKSGTASVVCLLNNFYPREAKVQWKVDNALQSGNSQESVTEQDSKDSTYSLSSTLTLSKADYEKHKVYACEVTHQGLSSPVTKSFNRGEC
As to B1, in [1], the “IC50, inhibition of THP-1 migration (chemotaxis assay)” value was determined as 0.2 µg/mL. In addition, in assay [2], the “EC50 (read off the curve) of the depletion of CCL2 from the supernatant of FcγRIIa CHO cells” value is around 0.1 nM. Also, in assay [3], the “Depletion level max (%) of CCL2 from the supernatant” value was 80%, the “EC50 [nM] of CCL2 depletion” value worked out at 0.13 nM and the “EC90 [nM] of CCL2 depletion” value stood at 0.5 nM.

B2: ABN912 (antibody, IgG1, V domains shown)
VH: EVQLVQSGGGLVQPGGSLRLSCAASGFTFSHYWMSWVRQAPGKGLEWLANIEQDGSEKYYVDSVKGRFTISRDNAKNSLYLQMNSLRAEDTAVYFCARDLEGLHGDGYFDLWGRGTLVTVSS
VL: AIQLTQSPSSLSASVGDRVILTCRASQGVSSALAWYQQKPGKAPKLLIYDASSLESGVPSRFSGSGSGPDFTLTISSLQPEDFATYFCQQFNSYPLTFGGGTKVEIK
notes: IgG1 with kappa light chain; also called AB912; CCL2-0003
Turning to B2, the Kd (usually a measure of binding affinity in units of concentration) in assay [4] turned out to be 0.01 nM; in assay [5] it was 2000 nM; in assay [6] it was 4 pM; in assay [7] it was 4 pM; in assay [8], 0.02 nM; in assay [10], 1 nM. The Kd in assay [12] was determined as 0.2 nM; in [13], 0.046 nM; in [14], 0.036 nM; in assay [15], 13 nM. Further, the “t 1/2-diss.” value in assay [4] came to 33 min; in assay [5] it was 0.03 min; in assay [6], 35 min; in assay [7], 25 min; in assay [8], 20 min; in assay [10], 3 min. In addition, the “t 1/2-diss.” value in assay [12] came to 8 min; in assay [15] it was 1 min. Also, the “t 1/2*” value in [9] was 27 min. For the same molecule, in assay [11], the “THP1 chemotaxis [fold change compared to IgG control]” value was found to be 6.5 fold. The “T1/2” value was determined as 25 min in [13] and 33 min in assay [14].

B3: CKLO2-GG03/GG04 (=P1AF8140) (bispecific antibody)
heavy 1: DIQMTQSPSSLSASVGDRVTITCKAFEDIYNRRAWYQQKPGKAPKLLIHGATSLEHGVPSRFSGSGSGTDYTLTISSLQPEDFATYYCQQFWSAPYTFGGGTKVEIKSSASTKGPSVFPLAPSSKSTSGGTAALGCLVKDYFPEPVTVSWNSGALTSGVHTFPAVLQSSGLYSLSSVVTVPSSSLGTQTYICNVNHKPSNTKVDKKVEPKSCDKTHTCPPCPAPEYLGGDSVFLFPPKPKDVLMISRTPEVTCVVIDVSHEDPEVKFNWYVDGVEVHNAKTKPREEQYNSTYRVVSVLPVLHRDWLNGKEYKCKVSNKALPKPIEKTISKAKGQRREPQVYTLPPCREEMTKNQVSLWCLVKGFYPSDIAVEWESNGQPENNYKTTPPVLDSDGSFFLYSKLTVDKSRWQQGNVFSCSVMHEALHAHYTRKELSLSP
heavy 2: not shown
light 1: QVQLVQSGAEVKKPGSSVKVSCKASGLTISHTYMHWVRQAPGQGLEWMGRIDPDNHNTKFDPKFQGRVTITADTSTSTAYMELSSLRSEDTAVYYCARGVFGFFEHWGQGTTVTVSSASVAAPSVFIFPPSDEQLKSGTASVVCLLNNFYPREAKVQWKVDNALQSGNSQESVTEQDSKDSTYSLSSTLTLSKADYEKHKVYACEVTHQGLSSPVTKSFNRGEC
light 2: EIVLTQSPATLSLSPGERATLSCRASQHVSDAYLAWYQQKPGQAPRLLIYDASDRAEGVPARFSGSGSGTDFTLTISSLEPEDFAVYYCHQYIHLHSFTFGQGTKVEIKRTVAAPSVFIFPPSDRKLKSGTASVVCLLNNFYPREAKVQWKVDNALQSGNSQESVTEQDSKDSTYSLSSTLTLSKADYEKHKVYACEVTHQGLSSPVTKSFNRGEC
For the molecule B3, the “IC50, inhibition of THP-1 migration (chemotaxis assay)” value in assay [1] turned out to be 0.3 µg/mL. Moreover, in assay [16], the “EC50 (read off the curve) of the depletion of CCL2 from the supernatant of FcγRIIb CHO cells” value is around 1 nM.
